Six substances from patent US20230056486 can be followed below.

“And” between values parts separate entries of the source, which are not always exact repeats. Equal values may be shown once.

Data set [1] relates to T1, (GR)10 dipeptide repeat peptide.
T1 sequence: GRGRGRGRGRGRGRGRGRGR

Data set [2] relates to T2, Biotin-(PEG)4-(GR)10.
T2 sequence: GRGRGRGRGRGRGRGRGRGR

Chain of Immobilized TPCK-trypsin on agarose resin; ThermoFisher Cat #20230 (P00760 24-246): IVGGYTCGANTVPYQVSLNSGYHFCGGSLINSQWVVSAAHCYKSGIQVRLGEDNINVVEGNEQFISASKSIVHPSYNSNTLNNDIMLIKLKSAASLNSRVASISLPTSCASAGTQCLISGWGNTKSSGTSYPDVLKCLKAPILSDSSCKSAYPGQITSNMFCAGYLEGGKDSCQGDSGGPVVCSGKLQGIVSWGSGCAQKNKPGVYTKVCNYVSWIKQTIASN

Factor Xa: in data set [1], the (GR)10 concentration left at 0 min (LC/MS; 50 µM start; TRIS buffer; TFA added before enzyme) is 33.1 µM and 31 µM; the (GR)10 concentration left at 5 min (LC/MS; 50 µM start; TRIS buffer) is 35 µM and 23.5 µM; the (GR)10 concentration left at 10 min (LC/MS; 50 µM start; TRIS buffer) was 19.4 µM and 13.6 µM.

As for “Immobilized TPCK-trypsin on agarose resin; ThermoFisher Cat #20230”, in data set [1], the (GR)10 concentration left at 0 min (LC/MS; 50 µM start) was 68.4 µM and 32.7 µM; the (GR)10 concentration left at 10 min (LC/MS; 50 µM start) was 2.1 µM and 1.6 µM; the (GR)10 concentration left at 30 min (LC/MS; 50 µM start) was 0.6 µM and 0.9 µM; the (GR)10 concentration left at 120 min (LC/MS; 50 µM start) worked out at 0.1 µM. For the same substance, in data set [1], the (GR)10 left in CSF; Commercial Trypsin-Immobilized-5 min reaction (LC/MS; 200 µM (GR)10 in human CSF) (normalized µM) is -0, the (GR)10 left in CSF; Commercial Trypsin-Immobilized-605 min reaction [as printed; 60 min meant] (LC/MS; 200 µM (GR)10 in human CSF) (normalized µM) was -0, the (GR)10 left; Commercial Trypsin-Immobilized-5 min reaction (LC/MS) came to 0 µM and the (GR)10 left; Commercial Trypsin-immobilized-60 min reaction (LC/MS) is 0 µM. For the same substance, in data set [1], the (GR)10 left; Commercial Trypsin-resin wash from 5 min reaction (LC/MS) stood at 0 µM, the (GR)10 left; Commercial Trypsin-resin wash from 60 min reaction (LC/MS) was determined as 0 µM and the “digestion of (GR)10 to shorter GR repeats (LC/MS)” value is on record as “Immobilized trypsin at 6.25 TAME Units digests (GR)10 to almost exclusively (GR)1 in 10 to 30 minutes”. For the same substance, the “digestion of biotin-(PEG)4-(GR)10 after 5 minutes, immobilized enzyme (LC/MS)” value (“digestion … immobilized enzyme (LC/MS)” for short) in data set [2] is “over 90% digestion of biotin-(PEG)4-(GR)10 after only 5 minutes of incubation time”.

As to Kallikrein 6 (neurosin), autoactivated, in data set [1], the (GR)10 concentration left at 0 min (LC/MS; 50 µM start; TFA added before enzyme) was 27.8 µM and 54.7 µM; the (GR)10 concentration left at 5 min (LC/MS; 50 µM start) is 42.2 µM and 57.5 µM; the (GR)10 concentration left at 10 min (LC/MS; 50 µM start) was 50.1 µM and 60.8 µM; the (GR)10 concentration left at 30 min (LC/MS; 50 µM start) is 57.8 µM and 65 µM. In data set [1], the (GR)10 concentration left at 60 min (LC/MS; 50 µM start) was 54.2 µM and 71.5 µM; the (GR)10 concentration left at 120 min (LC/MS; 50 µM start) is 54.3 µM and 57.4 µM.

Turning to elastase, in data set [1], the (GR)10 concentration left at 0 min (LC/MS; 50 µM start; TFA added before enzyme) is 53.8 µM and 41.6 µM; the (GR)10 concentration left at 5 min (LC/MS; 50 µM start) was 52.6 µM and 50.5 µM; the (GR)10 concentration left at 10 min (LC/MS; 50 µM start) is 52.5 µM and 37.8 µM; the (GR)10 concentration left at 30 min (LC/MS; 50 µM start) was 43.6 µM and 21.1 µM. For the same substance, in data set [1], the (GR)10 concentration left at 60 min (LC/MS; 50 µM start) is 35.3 µM and 12.2 µM; the (GR)10 left in CSF; Elastase-Immobilized-5 min reaction (LC/MS; 200 µM (GR)10 in human CSF) (normalized µM) is -0; the (GR)10 left in CSF; Elastase-Immobilized-605 min reaction [as printed; 60 min meant] (LC/MS; 200 µM (GR)10 in human CSF) (normalized µM) is -0; the (GR)10 left; Elastase-Immobilized-5 min reaction (LC/MS) (µM (normalized to GR concentration)) is -0. In data set [1], the (GR)10 left; Elastase-immobilized-60 min reaction (LC/MS) (µM (normalized to GR concentration)) was -0, the (GR)10 left; Elastase-in solution-5 min reaction (LC/MS) was 213 µM, the (GR)10 left; Elastase-in solution-60 min reaction (LC/MS) (µM (normalized to GR concentration)) amounted to 21.6 and the (GR)10 left; Elastase-resin wash from 5 min reaction (LC/MS) (µM (normalized to GR concentration)) is -0. For the same substance, in data set [1], the (GR)10 left; Elastase-resin wash from 60 min reaction (LC/MS) (µM (normalized to GR concentration)) is -0 and the “proteolytic activity on (GR)10 of immobilized enzyme after storage at 4° C. for over 2 months (LC/MS)” value was “agarose resin having immobilized elastase did not exhibit substantial (GR)10 proteolytic activity at either 5 minute or 60 minute treatment times”. The “digestion … immobilized enzyme (LC/MS)” value in data set [2] is “over 90% digestion of biotin-(PEG)4-(GR)10 after only 5 minutes of incubation time”.

For the substance “thrombin (activated by thermolysin, quenched by EDTA)”, in data set [1], the (GR)10 concentration left at 0 min (LC/MS; 50 µM start; TFA added before enzyme) is 37.7 µM and 52 µM; the (GR)10 concentration left at 5 min (LC/MS; 50 µM start) was 42.9 µM and 54.8 µM; the (GR)10 concentration left at 10 min (LC/MS; 50 µM start) was 46.7 µM and 59.4 µM; the (GR)10 concentration left at 30 min (LC/MS; 50 µM start) is 49.1 µM and 48.6 µM. Further, in data set [1], the (GR)10 concentration left at 60 min (LC/MS; 50 µM start) is 56.2 µM and 55.2 µM; the (GR)10 concentration left at 120 min (LC/MS; 50 µM start) is 45.3 µM and 48.7 µM.

Turning to trypsin, in data set [1], the (GR)10 concentration left at 0 min (LC/MS; 50 µM start; TFA added before enzyme) is 52.8 µM and 48.9 µM; the (GR)10 concentration left at 5 min (LC/MS; 50 µM start) is 2.2 µM and 2 µM; the “(GR)10 concentration left at 10 min (LC/MS; 50 µM start)” value is listed as “BLQ”; the “(GR)10 concentration left at 30 min (LC/MS; 50 µM start)” value is reported as “BLQ”. Moreover, in data set [1], the “(GR)10 concentration left at 60 min (LC/MS; 50 µM start)” value is given as “BLQ”, the “(GR)10 concentration left at 120 min (LC/MS; 50 µM start)” value is “BLQ”, the (GR)10 left in CSF; Trypsin-Immobilized-5 min reaction (LC/MS; 200 µM (GR)10 in human CSF) was determined as 0 µM and the (GR)10 left in CSF; Trypsin-Immobilized-60 min reaction (LC/MS; 200 µM (GR)10 in human CSF) (normalized µM) was -0. In data set [1], this substance gave a (GR)10 left; Trypsin-Immobilized-5 min reaction (LC/MS) of 0 µM, a (GR)10 left; Trypsin-immobilized-60 min reaction (LC/MS) of 0 µM, a (GR)10 left; Trypsin-in solution-5 min reaction (LC/MS) of 0 µM and a (GR)10 left; Trypsin-in solution-60 min reaction (LC/MS) of 0 µM. In addition, in data set [1], the (GR)10 left; Trypsin-resin wash from 5 min reaction (LC/MS) came to 6.6 µM; the (GR)10 left; Trypsin-resin wash from 60 min reaction (LC/MS) worked out at 0 µM; the “conversion of (GR)10 to shorter GR repeats (LC/MS)” value was “Almost complete conversion to (GR)1 and (GR)2 was observed in 5 to 10 min using either 2.5 or 10 µg/mL of trypsin for concentrations 50 µM of (GR)10”; the “proteolytic activity on (GR)10 of immobilized enzyme after storage at 4° C. for over 2 months (LC/MS)” value is “agarose resin having immobilized trypsin exhibited proteolytic activity after storage at 4 °C for over 2 months”. The “digestion … immobilized enzyme (LC/MS)” value in data set [2] was “over 90% digestion of biotin-(PEG)4-(GR)10 after only 5 minutes of incubation time”.
